One molecule from publication PMC11329518 can be followed below.

Common to all, as to test: fluorescence polarisation
On the technique in general: Polarisation of emitted light reports the rotation of a fluorescent probe.

For test [1], the target named is 5'FAM-labeled peptide H3 (1-21).
Test [2] deals with 5'FAM-labeled peptide H3K9me1.
Test [3] deals with 5'FAM-labeled peptide H3K9me2.

B1: GST-ARID1-His (natural protein)
chain: MAGWSMVADEDAVDYSKTPKSLDANRSPESVNPESTGFEKKIKELISLFRPLLDSFLAEFCSADGFLPLPAMTGEGRTVDLFNLFLNVTHKGGFDAVSENGSWDEVVQESGLESYDSASAKLIYVKYLDAFGRWLNRVVAGDTDVSSVELSGISDALVARLNGFLSEVKKKYELRKGRPAKELGAELKWFISKTKRRYDKHHVGKESASNDAVKEFQGSKLAERRLEQIMILESVTQECSSPGKRKRECPLETLKWLSDVAKDPCDPSLGIVPDRSEWVSYGSEEPWKQLLLFRASRTNNDSACEKTWQKVQKMHPCLYDDSAGASYNLRERLSYEDYKRGKTGNGSDIGSSDEEDRPCALVGSKFQAKVPEWTGITPESDSKWLGTRIWPLTKEQTKANLLIERDRIGKGRQDPCGCHNPGSIECVKFHITAKRDKLKLELGPAFYMWCFDVMGECTLQYWTDLELKKIKSLMSSPPSLSPAFIHQAKMILPSKSRGKIVSYFYNVTLLQYRASQSRITPHDIDSDTDQIFLRATENENPAPEANTFQKPALLSPNKKRCR
The Kd is the constant that tells how readily two partners part at equilibrium. A higher Kd goes with lower affinity. Take B1: the dissociation constant Kd in test [1] was determined as 4.73 µM; in test [2] it was 21.2 µM; in test [3] it was 40.5 µM.
